Entries after “also recorded” stand apart in the source; their conditions may differ.
Tests used:
purified DNA-PKcs = molecular target: T1, purified DNA-PKcs (Homo sapiens, UniProt P78527); assay: GST pull-down with purified DNA-PKcs; format: binding; details: for effect of DNA or EtBr on binding of purified DNA-PKcs: 20 ng/μl sonicated calf thymus DNA or 0.2 mg/ml EtBr; for salt dependence of interaction with homogeneous DNA-PKcs: 50 mM to 150 mM KCl; for interaction with purified DNA-PKcs: 120 mM KCl, silver-staining
T1 construct: The starting material for purification of DNA-PKcs was HeLa NE; host or cells: HeLa nuclear extract; purified in house over Q Sepharose, heparin agarose, phenyl Sepharose and Mono-S
Protocol: (§1) GST-Ku70 or GST-Ku80 (0.5-2.0 μg), or deletion derivative thereof, bound to Glutathione agarose beads, was incubated with ˜100 μg (10 μl) of HeLa Cell nuclear extract (NE) and 80 μl of Z′ buffer (25 mM HEPES pH 6.7, 12.5 mM MgCl2, 1 mM dithiothreitol, 0.1% Nonidet P40 (BDH), 20% Glycerol) containing the specified concentration of KCl (for example, 50 mM Z′ contains 50 mM KCl in addition to the other buffer components). Binding reactions were incubated at 4° C. for 3-4 hours and the beads recovered by centrifugation and washed 7 times in 1 ml of Buffer X (25 mM HEPES pH 6.7, 2 mM MgCl2, 1 mM Dithiothreitol, 0.4% Nonidet P40) containing the specified concentration of KCl (for example, 120 mM Buffer X contains 120 mM KCl in addition to the other buffer components). Proteins retained on the beads after washing were eluted in SDS gel-loading buffer and half of the sample subjected to polyacrylamide gel eletrophoresis and silver staining. “Pulldown” assays from purified DNA-PKcs were done as above with 400 ng of purified DNA-PKcs substituted for HeLa NE.
The starting material for purification of DNA-PKcs was HeLa NE obtained from the Computer Cell Culture Centre, Mons, Belgium. All purification steps were performed in buffer D (20 mM HEPES pH 7.6, 2 mm MgCl2, 0.2 mM EDTA, 10% Glycerol) with a specified concentration of KCl (for example 50 mM Buffer D contains 50 mM KCl in addition to the other buffer components). In a representative purification, 35 ml of HeLa NE was cleared by centrifugation and diluted to a final concentration of 50 mM Buffer D, and protease inhibitors added (Boehringer). This was loaded onto a 60 ml column of Q Sepharose (Pharmacia) and eluted in a linear salt gradient of 50-500 mM Buffer D. Under these conditions the majority of DNA-PKcs and Ku were separated into two fractions peaking at approximately 200 mM Buffer D, and 450 mM Buffer D respectively. The DNA-PKcs fraction was adjusted to 100 mM KCl using 0 mM Buffer D (salt concentration was measured by conductivity) and applied to a 10 ml column of heparin agarose (Sigma). The column was developed with a linear gradient of 100-200 mM Buffer D. The peak DNA-PKcs fraction from the heparin column was adjusted to 0.5 M ammonium sulphate and applied to a 2.5 ml column of phenyl Sepharose (Pharmacia) equilibrated in, typically, 300 mM Buffer D containing 0.5 M ammonium sulphate. Under these conditions, 100% of DNA-PKcs is retained by the column, whilst the majority of contaminating Ku flows through (as judged by western blotting using antibodies specific to the Ku subunits). The column was then washed extensively in 0 mM Buffer D containing 0.5 M ammonium sulphate, and subsequently in 0 mM Buffer D containing 0.4 M ammonium sulphate, which removes most of the remaining Ku, before applying a linear gradient of 0.4-0 M ammonium sulphate in 0 mM Buffer D. Peak DNA-PKcs fractions were dialysed into 50 mM Buffer D, applied to a 1 ml Mono-S FPLC column (Pharmacia), and eluted in a linear gradient of 50-500 mM Buffer D. Peak fractions were dialysed into 50 mM Buffer D and stored at −80° C. prior to use. The resulting protein preparation contained a single abundant polypeptide corresponding to DNA-PKcs as judged by Coomassie staining, silver staining and western blotting, with a ladder of smaller DNA-PKcs breakdown products. […] To assess the levels of Ku contamination in the DNA-PKcs preparation we carried out quantitative western blotting using Ku-specific antibodies. In these western blots, an essentially homogeneous preparation of Ku was titrated against known amounts of our DNA-PKcs preparations.
GST-Ku70 or GST-Ku80 containing glutathione agarose beads were incubated with 0.4 μg of purified DNA-PKcs under conditions of 120 mM KCl. The beads were then washed and any proteins retained on the beads were detected by silver-staining.
A control binding reaction using beads containing GST alone was also carried out. […]

DNA-PKcs = DNA-PKcs (Homo sapiens, UniProt P78527); assay: GST pull-down from HeLa cell nuclear extract; format: binding; design: incubated with ˜100 μg (10 μl) of HeLa Cell nuclear extract (NE); host or cells: HeLa cell nuclear extract; details: for effect of EtBr on interaction with DNA-PKcs in HeLa nuclear extract: EtBr 0.2 mg/ml; for proteins retrieved from crude HeLa nuclear extract: washed in buffer X containing 150 mM KCl, silver-staining
Protocol: as §1
The inventors performed pull-down assays from HeLa cell nuclear extract using GST-Ku70 or GST-Ku80 bound to glutathione agarose beads. Thus, GST-Ku70 or GST-Ku80 protein was purified on glutathione agarose beads as described above, and the beads incubated with crude HeLa cell nuclear extract and washed extensively in buffer X containing 150 mM KCl. The bound proteins were then eluted in the presence of SDS, subjected to SDS-PAGE on a 6% polyacrylamide gel and detected by silver-staining. A control binding reaction was carried out using beads containing only GST.
The inventors investigated whether the observed interactions between DNA-PKcs and the individual Ku subunits were indirect and were being mediated by DNA and/or the Ku heterodimer present in the HeLa nuclear extract. EtBr was used in a final concentration of 0.2 mg/ml in order to address the potential involvement of DNA (EtBr disrupts protein-DNA interactions).

T1 sequence (P78527 whole entry): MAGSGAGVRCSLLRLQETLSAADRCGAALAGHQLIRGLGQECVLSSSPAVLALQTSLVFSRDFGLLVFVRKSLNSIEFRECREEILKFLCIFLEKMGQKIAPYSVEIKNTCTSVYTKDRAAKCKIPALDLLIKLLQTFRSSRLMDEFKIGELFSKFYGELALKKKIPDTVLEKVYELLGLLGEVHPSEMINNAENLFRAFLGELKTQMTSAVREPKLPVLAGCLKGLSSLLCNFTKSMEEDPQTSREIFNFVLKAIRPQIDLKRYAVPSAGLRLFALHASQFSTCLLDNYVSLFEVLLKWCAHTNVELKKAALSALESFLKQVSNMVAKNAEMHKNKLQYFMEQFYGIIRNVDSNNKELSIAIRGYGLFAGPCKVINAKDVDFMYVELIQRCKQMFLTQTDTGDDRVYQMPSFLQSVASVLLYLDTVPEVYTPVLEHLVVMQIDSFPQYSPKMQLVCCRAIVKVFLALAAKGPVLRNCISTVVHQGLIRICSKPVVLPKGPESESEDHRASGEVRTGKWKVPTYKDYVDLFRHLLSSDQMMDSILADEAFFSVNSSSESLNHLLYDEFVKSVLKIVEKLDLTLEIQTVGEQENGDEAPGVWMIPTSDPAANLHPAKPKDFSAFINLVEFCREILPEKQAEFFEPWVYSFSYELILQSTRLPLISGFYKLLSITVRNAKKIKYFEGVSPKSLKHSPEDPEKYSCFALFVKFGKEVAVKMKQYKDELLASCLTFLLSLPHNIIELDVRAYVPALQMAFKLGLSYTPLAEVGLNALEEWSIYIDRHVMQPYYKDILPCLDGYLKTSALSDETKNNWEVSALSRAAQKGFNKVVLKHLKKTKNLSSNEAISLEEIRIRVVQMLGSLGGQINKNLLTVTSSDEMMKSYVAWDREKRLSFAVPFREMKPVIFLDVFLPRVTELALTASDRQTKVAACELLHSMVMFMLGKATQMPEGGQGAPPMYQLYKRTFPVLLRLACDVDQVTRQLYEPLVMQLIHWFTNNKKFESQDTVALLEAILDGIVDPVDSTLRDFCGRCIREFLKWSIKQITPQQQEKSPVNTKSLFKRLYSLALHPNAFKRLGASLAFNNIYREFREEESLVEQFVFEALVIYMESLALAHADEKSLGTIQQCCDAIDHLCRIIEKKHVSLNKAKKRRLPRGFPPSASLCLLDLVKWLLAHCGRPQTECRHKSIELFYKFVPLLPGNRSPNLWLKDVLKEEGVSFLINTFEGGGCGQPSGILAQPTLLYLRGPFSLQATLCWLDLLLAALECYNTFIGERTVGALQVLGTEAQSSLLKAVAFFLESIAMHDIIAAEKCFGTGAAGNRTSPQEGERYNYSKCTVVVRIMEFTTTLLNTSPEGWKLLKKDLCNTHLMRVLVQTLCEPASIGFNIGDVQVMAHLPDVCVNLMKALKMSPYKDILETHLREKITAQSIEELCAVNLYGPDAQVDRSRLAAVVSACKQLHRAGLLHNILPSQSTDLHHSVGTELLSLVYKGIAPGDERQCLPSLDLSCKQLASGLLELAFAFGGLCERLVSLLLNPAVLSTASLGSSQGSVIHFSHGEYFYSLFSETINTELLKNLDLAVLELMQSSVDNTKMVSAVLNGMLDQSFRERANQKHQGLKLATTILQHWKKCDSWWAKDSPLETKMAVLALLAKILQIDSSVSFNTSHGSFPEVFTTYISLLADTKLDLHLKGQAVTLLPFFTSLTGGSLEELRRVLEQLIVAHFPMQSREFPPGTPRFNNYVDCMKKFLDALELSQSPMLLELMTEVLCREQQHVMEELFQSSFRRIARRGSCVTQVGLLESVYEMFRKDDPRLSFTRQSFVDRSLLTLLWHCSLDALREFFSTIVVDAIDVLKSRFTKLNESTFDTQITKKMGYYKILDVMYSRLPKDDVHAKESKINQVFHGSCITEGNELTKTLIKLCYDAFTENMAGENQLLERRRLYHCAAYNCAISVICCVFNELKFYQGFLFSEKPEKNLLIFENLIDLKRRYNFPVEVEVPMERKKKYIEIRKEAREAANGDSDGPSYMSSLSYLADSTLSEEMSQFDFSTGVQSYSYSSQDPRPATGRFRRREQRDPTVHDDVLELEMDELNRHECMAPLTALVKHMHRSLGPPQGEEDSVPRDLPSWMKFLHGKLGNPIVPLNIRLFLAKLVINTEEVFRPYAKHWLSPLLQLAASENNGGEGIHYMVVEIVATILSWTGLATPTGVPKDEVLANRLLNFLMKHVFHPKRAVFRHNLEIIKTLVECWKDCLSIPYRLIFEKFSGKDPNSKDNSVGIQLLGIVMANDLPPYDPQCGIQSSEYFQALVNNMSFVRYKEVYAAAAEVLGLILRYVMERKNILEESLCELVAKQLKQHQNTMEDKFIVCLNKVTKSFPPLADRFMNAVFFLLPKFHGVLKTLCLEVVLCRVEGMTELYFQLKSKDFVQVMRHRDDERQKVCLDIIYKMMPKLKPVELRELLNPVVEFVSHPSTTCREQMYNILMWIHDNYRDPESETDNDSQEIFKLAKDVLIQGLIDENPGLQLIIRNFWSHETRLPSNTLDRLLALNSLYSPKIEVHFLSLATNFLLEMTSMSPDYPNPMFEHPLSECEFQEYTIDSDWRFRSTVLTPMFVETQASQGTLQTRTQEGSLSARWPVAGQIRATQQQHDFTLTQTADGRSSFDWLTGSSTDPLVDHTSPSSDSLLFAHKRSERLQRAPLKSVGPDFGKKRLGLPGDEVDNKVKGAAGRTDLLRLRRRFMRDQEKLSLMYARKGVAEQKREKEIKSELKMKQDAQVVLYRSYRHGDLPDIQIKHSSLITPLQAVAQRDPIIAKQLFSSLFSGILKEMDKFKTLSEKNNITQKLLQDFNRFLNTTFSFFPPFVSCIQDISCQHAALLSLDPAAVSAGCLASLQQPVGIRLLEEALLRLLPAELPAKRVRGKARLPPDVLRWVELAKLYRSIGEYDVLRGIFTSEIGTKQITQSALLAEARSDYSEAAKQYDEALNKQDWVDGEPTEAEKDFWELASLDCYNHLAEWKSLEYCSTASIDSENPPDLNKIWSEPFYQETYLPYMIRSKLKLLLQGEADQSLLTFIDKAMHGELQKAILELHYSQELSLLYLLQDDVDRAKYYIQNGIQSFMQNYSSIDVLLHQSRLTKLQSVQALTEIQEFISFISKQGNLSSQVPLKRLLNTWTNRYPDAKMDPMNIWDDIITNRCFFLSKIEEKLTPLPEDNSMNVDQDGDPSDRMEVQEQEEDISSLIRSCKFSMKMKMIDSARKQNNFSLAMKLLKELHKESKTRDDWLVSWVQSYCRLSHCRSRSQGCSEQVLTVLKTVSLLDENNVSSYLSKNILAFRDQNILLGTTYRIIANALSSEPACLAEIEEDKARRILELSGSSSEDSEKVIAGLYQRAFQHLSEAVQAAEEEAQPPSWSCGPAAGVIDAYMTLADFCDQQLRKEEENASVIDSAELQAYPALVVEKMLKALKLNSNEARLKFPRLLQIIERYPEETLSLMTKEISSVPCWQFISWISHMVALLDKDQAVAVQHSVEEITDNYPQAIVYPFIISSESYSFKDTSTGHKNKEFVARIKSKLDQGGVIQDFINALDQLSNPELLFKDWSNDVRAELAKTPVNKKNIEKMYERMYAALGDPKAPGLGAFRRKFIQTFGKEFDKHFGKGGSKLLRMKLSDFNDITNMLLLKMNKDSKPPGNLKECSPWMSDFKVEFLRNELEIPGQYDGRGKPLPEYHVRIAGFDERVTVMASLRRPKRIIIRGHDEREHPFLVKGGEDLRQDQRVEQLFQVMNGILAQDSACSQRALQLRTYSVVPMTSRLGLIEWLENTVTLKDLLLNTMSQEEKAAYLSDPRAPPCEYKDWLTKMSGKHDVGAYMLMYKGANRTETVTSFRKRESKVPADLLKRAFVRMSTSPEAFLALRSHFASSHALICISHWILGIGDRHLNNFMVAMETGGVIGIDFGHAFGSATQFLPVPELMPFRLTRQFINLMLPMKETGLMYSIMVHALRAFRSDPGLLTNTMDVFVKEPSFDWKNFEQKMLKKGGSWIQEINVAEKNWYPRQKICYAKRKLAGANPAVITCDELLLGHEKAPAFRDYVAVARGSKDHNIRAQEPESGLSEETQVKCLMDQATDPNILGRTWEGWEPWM
Sequence of DNA-PKcs (P78527 whole entry): as above

Row | Substance | effect of DNA or EtBr on binding of purified DNA-PKcs (purified DNA-PKcs) | effect of DNA or EtBr on binding of purified DNA-PKcs (purified DNA-PKcs; listed as Ku70) | salt dependence of interaction with homogeneous DNA-PKcs (purified DNA-PKcs) | interaction with purified DNA-PKcs (purified DNA-PKcs) | effect of EtBr on interaction with DNA-PKcs in HeLa nuclear extract (DNA-PKcs) | proteins retrieved from crude HeLa nuclear extract (DNA-PKcs)
1 | GST-Ku70: full length human Ku70 fused to glutathione S-transferase, expressed in E. coli | no affect | no stimulation of binding was observed in the presence of DNA | at lower but not at higher ionic strengths, there is an interaction | very little interaction | essentially abolished by EtBr treatment | DNA-PKcs is the only protein that is retrieved
2 | GST-Ku80: full length human Ku80 fused to glutathione S-transferase, expressed in E. coli | not affected by EtBr or by sheared genomic DNA; also recorded: no affect |  | still easily detectable at 150 mM KCl | interacts efficiently with purified DNA-PKcs | unaffected by EtBr | DNA-PKcs is the only protein that is retrieved
